Laboratory results as given in the supplement of paper PMC9112550, “Optimization of the antimicrobial peptide Bac7 by deep mutational scanning” (BMC Biology, 2022).

System: Escherichia coli TOP10
Test: shrunken log2 fold change of peptide-encoding DNA abundance (4.5 h post-induction vs induction); higher = less antimicrobial activity (less host growth inhibition)
Details: time post-induction: 4.5 h; library: site-saturation at positions 5, 18, 19, 20
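Also: peptides expressed intracellularly from a pBAD plasmid library in pooled LB shake-flask culture, induced with 0.3% L-arabinose, DNA abundance read by NGS, three biological replicates, DESeq2 with apeglm shrinkage.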

In the case of RRIRSRPPRLPRPRPRPQWAPRP, the “shrunken log2 fold change” value was 0.0253.

With RRIRDRPPRLPRPRPRPTYGPRP the “shrunken log2 fold change” value was -0.257.

In the case of RRIRLRPPRLPRPRPRPDGNPRP, the “shrunken log2 fold change” value was -0.0479.

RRIRDRPPRLPRPRPRPFLCPRP was tested, and the “shrunken log2 fold change” value was 0.0956.

In the case of RRIRERPPRLPRPRPRPHSLPRP, the “shrunken log2 fold change” value was -0.0176.

In the case of RRIRFRPPRLPRPRPRPKIYPRP, the “shrunken log2 fold change” value was -0.328.

With RRIRLRPPRLPRPRPRPKDTPRP the “shrunken log2 fold change” value was 0.0949.

With RRIRARPPRLPRPRPRPKQPPRP the “shrunken log2 fold change” value was 0.516.

In the case of RRIRDRPPRLPRPRPRPWFFPRP, the “shrunken log2 fold change” value was 0.673.

In the case of RRIRFRPPRLPRPRPRPGSDPRP, the “shrunken log2 fold change” value was -0.111.

In the case of RRIRTRPPRLPRPRPRPTGGPRP, the “shrunken log2 fold change” value was 0.164.

With RRIRLRPPRLPRPRPRPPFYPRP the “shrunken log2 fold change” value was -0.185.

RRIRPRPPRLPRPRPRPWSGPRP was tested, and the “shrunken log2 fold change” value was 0.000793.

RRIRDRPPRLPRPRPRPTWHPRP was tested, and the “shrunken log2 fold change” value was 0.376.

For RRIRIRPPRLPRPRPRPKYFPRP, the “shrunken log2 fold change” value was -0.288.

With RRIRHRPPRLPRPRPRPMCTPRP the “shrunken log2 fold change” value was -0.696.

In the case of RRIRKRPPRLPRPRPRPWGHPRP, the “shrunken log2 fold change” value was -0.0374.

In the case of RRIRTRPPRLPRPRPRPPSDPRP, the “shrunken log2 fold change” value was 0.498.

In the case of RRIRMRPPRLPRPRPRPQIWPRP, the “shrunken log2 fold change” value was 0.144.

With RRIRRRPPRLPRPRPRPDDCPRP the “shrunken log2 fold change” value was 0.279.

For RRIRGRPPRLPRPRPRPFMKPRP, the “shrunken log2 fold change” value was -0.248.

In the case of RRIRKRPPRLPRPRPRPGRDPRP, the “shrunken log2 fold change” value was 0.688.

RRIRVRPPRLPRPRPRPDWQPRP was tested, and the “shrunken log2 fold change” value was 0.0968.

For RRIRMRPPRLPRPRPRPNDCPRP, the “shrunken log2 fold change” value was -0.00865.

In the case of RRIRGRPPRLPRPRPRPNGYPRP, the “shrunken log2 fold change” value was -0.00669.

In the case of RRIRTRPPRLPRPRPRPIHQPRP, the “shrunken log2 fold change” value was 0.0323.

For RRIRRRPPRLPRPRPRPTLQPRP, the “shrunken log2 fold change” value was 0.678.

For RRIRFRPPRLPRPRPRPSHNPRP, the “shrunken log2 fold change” value was -0.782.

In the case of RRIRCRPPRLPRPRPRPKYHPRP, the “shrunken log2 fold change” value was -0.743.

For RRIRWRPPRLPRPRPRPWDVPRP, the “shrunken log2 fold change” value was 0.0249.

RRIRLRPPRLPRPRPRPGPGPRP was tested, and the “shrunken log2 fold change” value was 0.279.

In the case of RRIRFRPPRLPRPRPRPVRKPRP, the “shrunken log2 fold change” value was -0.355.

In the case of RRIRPRPPRLPRPRPRPTADPRP, the “shrunken log2 fold change” value was 0.407.

With RRIRYRPPRLPRPRPRPDRPPRP the “shrunken log2 fold change” value was -0.215.

With RRIRTRPPRLPRPRPRPRYSPRP the “shrunken log2 fold change” value was 0.0915.

With RRIRCRPPRLPRPRPRPCWAPRP the “shrunken log2 fold change” value was -0.0725.

In the case of RRIRSRPPRLPRPRPRPQIPPRP, the “shrunken log2 fold change” value was -0.538.

RRIRARPPRLPRPRPRPRLGPRP was tested, and the “shrunken log2 fold change” value was 0.606.

RRIRGRPPRLPRPRPRPVQAPRP was tested, and the “shrunken log2 fold change” value was 0.891.

RRIRIRPPRLPRPRPRPMKPPRP was tested, and the “shrunken log2 fold change” value was -0.00581.

In the case of RRIRARPPRLPRPRPRPNWWPRP, the “shrunken log2 fold change” value was 0.802.

For RRIRCRPPRLPRPRPRPAECPRP, the “shrunken log2 fold change” value was -0.223.

In the case of RRIRDRPPRLPRPRPRPWGHPRP, the “shrunken log2 fold change” value was 0.0208.

For RRIRKRPPRLPRPRPRPFFDPRP, the “shrunken log2 fold change” value was 0.112.

For RRIRMRPPRLPRPRPRPLSWPRP, the “shrunken log2 fold change” value was 0.982.

RRIRTRPPRLPRPRPRPWVLPRP was tested, and the “shrunken log2 fold change” value was -0.0462.

In the case of RRIRDRPPRLPRPRPRPNPQPRP, the “shrunken log2 fold change” value was -0.19.

For RRIRKRPPRLPRPRPRPPSMPRP, the “shrunken log2 fold change” value was 0.669.

With RRIRFRPPRLPRPRPRPQTKPRP the “shrunken log2 fold change” value was -0.142.

With RRIRCRPPRLPRPRPRPMNKPRP the “shrunken log2 fold change” value was -0.32.

For RRIRDRPPRLPRPRPRPIFTPRP, the “shrunken log2 fold change” value was -0.0502.

RRIRYRPPRLPRPRPRPWYPPRP was tested, and the “shrunken log2 fold change” value was -0.485.

In the case of RRIRERPPRLPRPRPRPCNWPRP, the “shrunken log2 fold change” value was -0.0685.

In the case of RRIRTRPPRLPRPRPRPHYFPRP, the “shrunken log2 fold change” value was -0.914.

With RRIRARPPRLPRPRPRPCEHPRP the “shrunken log2 fold change” value was 0.0977.

RRIRLRPPRLPRPRPRPRGTPRP was tested, and the “shrunken log2 fold change” value was 0.0155.

With RRIRDRPPRLPRPRPRPWFQPRP the “shrunken log2 fold change” value was -0.0572.

With RRIRPRPPRLPRPRPRPGTTPRP the “shrunken log2 fold change” value was 0.195.

In the case of RRIRFRPPRLPRPRPRPVPKPRP, the “shrunken log2 fold change” value was -0.208.

With RRIRPRPPRLPRPRPRPIHAPRP the “shrunken log2 fold change” value was -0.0974.

With RRIRCRPPRLPRPRPRPVAYPRP the “shrunken log2 fold change” value was -0.232.

RRIRIRPPRLPRPRPRPQFTPRP was tested, and the “shrunken log2 fold change” value was -0.986.

In the case of RRIRNRPPRLPRPRPRPIGPPRP, the “shrunken log2 fold change” value was -0.181.

In the case of RRIRKRPPRLPRPRPRPTASPRP, the “shrunken log2 fold change” value was 0.783.

RRIRPRPPRLPRPRPRPALKPRP was tested, and the “shrunken log2 fold change” value was 0.128.

With RRIRKRPPRLPRPRPRPMQTPRP the “shrunken log2 fold change” value was 0.753.

RRIRARPPRLPRPRPRPCFSPRP was tested, and the “shrunken log2 fold change” value was -0.137.

For RRIRVRPPRLPRPRPRPWHWPRP, the “shrunken log2 fold change” value was -0.0605.

For RRIRDRPPRLPRPRPRPRQVPRP, the “shrunken log2 fold change” value was 0.262.

RRIRIRPPRLPRPRPRPGWIPRP was tested, and the “shrunken log2 fold change” value was -0.14.

For RRIRERPPRLPRPRPRPCTFPRP, the “shrunken log2 fold change” value was -0.129.

With RRIRGRPPRLPRPRPRPLPMPRP the “shrunken log2 fold change” value was 0.666.

RRIRDRPPRLPRPRPRPYETPRP was tested, and the “shrunken log2 fold change” value was -0.198.

For RRIRPRPPRLPRPRPRPAIIPRP, the “shrunken log2 fold change” value was -0.112.

With RRIRGRPPRLPRPRPRPAMKPRP the “shrunken log2 fold change” value was 0.311.

RRIRTRPPRLPRPRPRPTKYPRP was tested, and the “shrunken log2 fold change” value was -0.612.

RRIRWRPPRLPRPRPRPRHQPRP was tested, and the “shrunken log2 fold change” value was -0.0137.

With RRIRSRPPRLPRPRPRPNQRPRP the “shrunken log2 fold change” value was 0.0415.

For RRIRPRPPRLPRPRPRPNVEPRP, the “shrunken log2 fold change” value was 0.0775.

In the case of RRIRERPPRLPRPRPRPMHNPRP, the “shrunken log2 fold change” value was -0.437.

RRIRQRPPRLPRPRPRPWQMPRP was tested, and the “shrunken log2 fold change” value was -0.0417.

RRIRARPPRLPRPRPRPCYCPRP was tested, and the “shrunken log2 fold change” value was -0.0765.

With RRIRMRPPRLPRPRPRPFVKPRP the “shrunken log2 fold change” value was -1.03.

In the case of RRIRCRPPRLPRPRPRPDFHPRP, the “shrunken log2 fold change” value was -0.685.

With RRIRKRPPRLPRPRPRPMCWPRP the “shrunken log2 fold change” value was 0.0564.

For RRIRMRPPRLPRPRPRPNKWPRP, the “shrunken log2 fold change” value was 0.079.

RRIRRRPPRLPRPRPRPYCQPRP was tested, and the “shrunken log2 fold change” value was -0.664.

In the case of RRIRPRPPRLPRPRPRPQPHPRP, the “shrunken log2 fold change” value was 0.138.

In the case of RRIRMRPPRLPRPRPRPDLEPRP, the “shrunken log2 fold change” value was 1.54.

With RRIRGRPPRLPRPRPRPWYPPRP the “shrunken log2 fold change” value was -0.119.

For RRIRTRPPRLPRPRPRPTIFPRP, the “shrunken log2 fold change” value was -0.2.

For RRIRIRPPRLPRPRPRPSCAPRP, the “shrunken log2 fold change” value was -0.249.

In the case of RRIRFRPPRLPRPRPRPYFQPRP, the “shrunken log2 fold change” value was -1.44.

For RRIRGRPPRLPRPRPRPPSHPRP, the “shrunken log2 fold change” value was 0.597.

RRIRDRPPRLPRPRPRPGLPPRP was tested, and the “shrunken log2 fold change” value was 0.245.

RRIRWRPPRLPRPRPRPYFKPRP was tested, and the “shrunken log2 fold change” value was -0.839.

In the case of RRIRTRPPRLPRPRPRPCNSPRP, the “shrunken log2 fold change” value was -0.0206.

With RRIRLRPPRLPRPRPRPQPLPRP the “shrunken log2 fold change” value was 0.00386.

In the case of RRIRMRPPRLPRPRPRPSWFPRP, the “shrunken log2 fold change” value was 0.0112.

For RRIRERPPRLPRPRPRPAVKPRP, the “shrunken log2 fold change” value was -0.0221.

In the case of RRIRCRPPRLPRPRPRPKTIPRP, the “shrunken log2 fold change” value was -0.141.

RRIRSRPPRLPRPRPRPYEAPRP was tested, and the “shrunken log2 fold change” value was -0.241.

In the case of RRIRSRPPRLPRPRPRPFCKPRP, the “shrunken log2 fold change” value was -0.449.

In the case of RRIRCRPPRLPRPRPRPKDCPRP, the “shrunken log2 fold change” value was -0.0763.

With RRIRHRPPRLPRPRPRPGWHPRP the “shrunken log2 fold change” value was 0.208.

For RRIRIRPPRLPRPRPRPKVNPRP, the “shrunken log2 fold change” value was -0.647.

With RRIRYRPPRLPRPRPRPWATPRP the “shrunken log2 fold change” value was -0.379.

RRIRIRPPRLPRPRPRPHEIPRP was tested, and the “shrunken log2 fold change” value was -0.256.

RRIRWRPPRLPRPRPRPYDCPRP was tested, and the “shrunken log2 fold change” value was 0.00333.

For RRIRKRPPRLPRPRPRPNWIPRP, the “shrunken log2 fold change” value was -0.2.

With RRIRRRPPRLPRPRPRPICTPRP the “shrunken log2 fold change” value was 0.391.

In the case of RRIRHRPPRLPRPRPRPRRDPRP, the “shrunken log2 fold change” value was -0.02.

In the case of RRIRMRPPRLPRPRPRPKHAPRP, the “shrunken log2 fold change” value was 3.03.

With RRIRSRPPRLPRPRPRPHAKPRP the “shrunken log2 fold change” value was -0.288.

RRIRTRPPRLPRPRPRPCPLPRP was tested, and the “shrunken log2 fold change” value was -0.325.

For RRIRCRPPRLPRPRPRPWTEPRP, the “shrunken log2 fold change” value was -0.755.

With RRIRYRPPRLPRPRPRPCICPRP the “shrunken log2 fold change” value was -0.0423.

For RRIRKRPPRLPRPRPRPVGKPRP, the “shrunken log2 fold change” value was -0.163.

RRIRPRPPRLPRPRPRPPQWPRP was tested, and the “shrunken log2 fold change” value was 0.403.

With RRIRCRPPRLPRPRPRPDPKPRP the “shrunken log2 fold change” value was 0.0617.

For RRIRRRPPRLPRPRPRPYCKPRP, the “shrunken log2 fold change” value was -0.24.

In the case of RRIRQRPPRLPRPRPRPMPGPRP, the “shrunken log2 fold change” value was 0.0214.

In the case of RRIRHRPPRLPRPRPRPKLDPRP, the “shrunken log2 fold change” value was 0.225.

RRIRSRPPRLPRPRPRPGQHPRP was tested, and the “shrunken log2 fold change” value was 0.178.

With RRIRDRPPRLPRPRPRPYIGPRP the “shrunken log2 fold change” value was -0.0691.
